From patent US20130225488A1 (CADILA HEALTHCARE, published 2013)
Where no end group is shown, it is not given here. [ ]: non-standard residue; d: D form.

Key:
Human GLP-1 receptor = Human GLP-1 receptor (human, UniProt P43220 24-463); test: cell-based or functional assay
Human glucagon receptor = Human glucagon receptor (human, UniProt P47871 26-477); test: cell-based or functional assay

Human GLP-1 receptor, sequence (P43220 24-463): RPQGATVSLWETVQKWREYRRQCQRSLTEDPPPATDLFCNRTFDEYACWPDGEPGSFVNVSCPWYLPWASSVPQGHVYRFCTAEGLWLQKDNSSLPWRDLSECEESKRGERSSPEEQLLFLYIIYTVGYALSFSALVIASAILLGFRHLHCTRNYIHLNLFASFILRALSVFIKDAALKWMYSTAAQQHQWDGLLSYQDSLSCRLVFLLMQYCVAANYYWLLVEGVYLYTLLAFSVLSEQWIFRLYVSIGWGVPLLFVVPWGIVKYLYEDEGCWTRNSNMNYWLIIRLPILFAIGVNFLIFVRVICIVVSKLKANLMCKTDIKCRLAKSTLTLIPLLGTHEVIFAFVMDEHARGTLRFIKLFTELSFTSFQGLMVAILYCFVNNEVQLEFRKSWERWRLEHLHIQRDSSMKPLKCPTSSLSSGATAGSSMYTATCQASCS

| Binder | cAMP release, % activity with respect to control; test compound 1 nM (Human GLP-1 receptor) | cAMP release, % activity with respect to control; test compound 10 nM (Human GLP-1 receptor) | cAMP release, % activity with respect to control; test compound 100 nM (Human GLP-1 receptor) | cAMP release, % activity with respect to control; test compound 1 µM (Human GLP-1 receptor) | cAMP release, % activity with respect to control; test compound 10 µM (Human GLP-1 receptor) | cAMP production with saturated glucagon peptide; test compound 1 nM (Human glucagon receptor) | cAMP production with saturated glucagon peptide; test compound 10 nM (Human glucagon receptor) | cAMP production with saturated glucagon peptide; test compound 100 nM (Human glucagon receptor) | cAMP production with saturated glucagon peptide; test compound 10 µM (Human glucagon receptor) | cAMP production with saturated glucagon peptide; test compound '1 nM' (Human glucagon receptor) |
| --- | --- | --- | --- | --- | --- | --- | --- | --- | --- | --- |
| HXQGTXTSDXX (not fully specified; ACP at 2; α-Me-2F-Phe at 6; Bip(OMe) at 10; Bip(Pyr) at 11) [Seq. ID. No. 34: H-(ACP)-QGT-(α-Me-2F-Phe)-TSD-Bip(OMe)-Bip(Pyr)] | 99% | 99% | 99% | 99% | 99% | 0 pmol/ml/µg prt | 0 pmol/ml/µg prt | 0 pmol/ml/µg prt | 0 pmol/ml/µg prt | 0 pmol/ml/µg prt |
| HXQGTXTSDXX (not fully specified; ACP at 2; α-Me-2F-Phe at 6; Bip(OMe) at 10; Bip(2F) at 11) [Seq. ID. No. 35: H-(ACP)-QGT-(α-Me-2F-Phe)-TSD-Bip(OMe)-Bip(2F)] | 99% | 99% | 99% | 99% | 99% | 5 pmol/ml/µg prt | 3 pmol/ml/µg prt | 1 pmol/ml/µg prt | 0 pmol/ml/µg prt | 0 pmol/ml/µg prt |
| HSQGTFTSD[Bip(OMe)][Bip(2F)] (not fully specified (C-terminus); printed as HSQGTFTSD-Bip(OMe)-Bip(2F)) [Seq. ID. No. 7: HSQGTFTSD-Bip(OMe)-Bip(2F)] | 45% | 84% | 90% | 99% | 99% | 6 pmol/ml/µg prt | 5 pmol/ml/µg prt | 2 pmol/ml/µg prt | 0 pmol/ml/µg prt | 0 pmol/ml/µg prt |
| HSQGTFTSD[Bip(OMe)][Bip(2CF3)] (not fully specified (C-terminus); printed as HSQGTFTSD-Bip(OMe)-Bip(2CF3)) [Seq. ID. No. 8: HSQGTFTSD-Bip(OMe)-Bip(2CF3)] | 40% | 81% | 87% | 95% | 98% | 4 pmol/ml/µg prt | 2 pmol/ml/µg prt | 0 pmol/ml/µg prt | 0 pmol/ml/µg prt | 0 pmol/ml/µg prt |
| HAQGTFTSD[Bip(OMe)][Bip(2Me)] (not fully specified (C-terminus); printed as HAQGTFTSD-Bip(OMe)-Bip(2Me)) [Seq. ID. No. 9: HAQGTFTSD-Bip(OMe)-Bip(2Me)] | 38% | 77% | 85% | 94% | 97% | 18 pmol/ml/µg prt | 16 pmol/ml/µg prt | 12 pmol/ml/µg prt | 6 pmol/ml/µg prt | 8 pmol/ml/µg prt |
